The values below are quoted from earlier work in publication PMC10813008.

By pKa is commonly meant the negative logarithm of the acid dissociation constant.

The target of one data set is His12 (UniProt position 38, KFERQHMDSST). The data set can be described thus: mass spectrometry.
A further data set addresses His119 (UniProt position 145, PYVPVHFDASV). The data set can be described thus: mass spectrometry.
Another data set deals with His61 (UniProt position 92, RYQMDHGARIF). The data set can be described thus: NMR.
The next data set has as its target His81 (UniProt position 112, NTIVLHHGPLY). The data set can be described thus: NMR.
Another data set addresses His25 (UniProt position 26, QTCVVHYTGML). The data set can be described thus: NMR. Particulars: not stated (ref 75 studied forms with and without immunosuppressant ligands; the review does not say which form the limit refers to).
For the next data set, the target named is His54 (UniProt position 54, KGSCFHRIIPG). The data set can be described thus: NMR. Conditions: not stated (ref 75 studied forms with and without immunosuppressant ligands; the review does not say which form the limit refers to).
The mark [1] stands for this setting: complex with 3'-cytidine monophosphate (3'-CMP).

For the substance “Ribonuclease A (RNase A, pancreatic ribonuclease) (Bos taurus)”, the pKa with His12 (setting [1]) is on record as 7.1; with His12 (free enzyme), 5.8; in the data set with His119 (setting [1]), 7.0; with His119 (free enzyme), 6.3.
Turning to “Phosphatidylinositol-specific phospholipase C (PI-PLC) (Bacillus cereus)”, the pKa with His61 and with His81 was under 3 each time.
Consider “FK506 binding protein (FKBP) (not stated (probably Homo sapiens))”, for which the pKa with His25 was under 3.6.
For “Cyclophilin (cyclophilin A) (not stated (probably Homo sapiens))”, the pKa with His54 is recorded as under 4.2.
